The text below walks through data of patent US20220064286A1 (Genentech, published 2022).

The target in one test is T1, hTIGIT mutant Y113A (human, UniProt Q495A1).
T1 sequence (TIGIT, looked up): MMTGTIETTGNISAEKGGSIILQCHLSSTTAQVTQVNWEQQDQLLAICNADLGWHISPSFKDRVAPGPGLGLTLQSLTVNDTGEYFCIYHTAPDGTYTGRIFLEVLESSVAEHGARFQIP
The experiment in a line: SPR (BIACORE) KD normalized to WT, N=2.

For a further test, the target named is T2, hTIGIT mutant Q53A (human, UniProt Q495A1).
T2 sequence (TIGIT, looked up): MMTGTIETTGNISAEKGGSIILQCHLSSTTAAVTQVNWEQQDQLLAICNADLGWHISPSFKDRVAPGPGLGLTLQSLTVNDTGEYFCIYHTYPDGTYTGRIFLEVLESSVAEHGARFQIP
The experiment in a line: SPR (BIACORE) KD normalized to WT, N=2. (In general: SPR reads the build-up and loss of mass on a sensor chip optically.)

The next test has as its target T3, hTIGIT mutant L73A (human, UniProt Q495A1).
T3 sequence (TIGIT, looked up): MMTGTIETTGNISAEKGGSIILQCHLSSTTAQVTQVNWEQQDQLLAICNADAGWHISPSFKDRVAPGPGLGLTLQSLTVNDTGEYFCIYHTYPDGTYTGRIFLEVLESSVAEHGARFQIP
Kind of test: SPR (BIACORE) KD normalized to WT, N=2.

Another test concerns the target T4, hTIGIT mutant N70A (human, UniProt Q495A1).
T4 sequence (TIGIT, looked up): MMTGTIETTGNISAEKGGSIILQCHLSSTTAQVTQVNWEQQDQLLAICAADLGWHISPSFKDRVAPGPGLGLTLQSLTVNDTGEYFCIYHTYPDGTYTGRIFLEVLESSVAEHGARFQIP
The experiment in a line: SPR (BIACORE), N=2.

The target of a further test is T5, hTIGIT mutant H76A (human, UniProt Q495A1).
T5 sequence (TIGIT, looked up): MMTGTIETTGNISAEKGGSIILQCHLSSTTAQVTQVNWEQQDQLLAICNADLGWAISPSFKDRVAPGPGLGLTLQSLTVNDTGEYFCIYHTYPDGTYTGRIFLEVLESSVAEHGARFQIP
The experiment in a line: SPR (BIACORE), N=2.

The target of another test is T6, hTIGIT mutant I68A (human, UniProt Q495A1).
T6 sequence (TIGIT, looked up): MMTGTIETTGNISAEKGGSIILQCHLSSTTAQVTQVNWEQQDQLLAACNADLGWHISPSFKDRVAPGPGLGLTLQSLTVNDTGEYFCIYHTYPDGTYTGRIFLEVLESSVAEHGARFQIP
The experiment in a line: SPR (BIACORE), N=2.

The target of the next test is T7, hTIGIT mutant H111A (human, UniProt Q495A1).
T7 sequence (TIGIT, looked up): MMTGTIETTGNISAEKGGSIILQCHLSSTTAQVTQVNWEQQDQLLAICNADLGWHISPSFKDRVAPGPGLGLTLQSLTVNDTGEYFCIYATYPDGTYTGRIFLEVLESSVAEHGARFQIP
The experiment in a line: SPR (BIACORE), N=2.

The target of another test is T8, hTIGIT mutant Q56A (human, UniProt Q495A1).
T8 sequence (TIGIT, looked up): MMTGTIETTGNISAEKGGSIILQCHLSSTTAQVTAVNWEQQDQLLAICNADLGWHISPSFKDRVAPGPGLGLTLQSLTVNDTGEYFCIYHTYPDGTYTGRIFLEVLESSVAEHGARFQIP
Kind of test: SPR (BIACORE), N=2.

The target of the next test is T9, hTIGIT mutant L65A (human, UniProt Q495A1).
T9 sequence (TIGIT, looked up): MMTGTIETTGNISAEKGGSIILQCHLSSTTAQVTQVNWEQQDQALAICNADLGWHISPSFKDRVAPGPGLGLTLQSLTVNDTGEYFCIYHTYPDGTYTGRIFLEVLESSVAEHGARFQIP
Kind of test: SPR (BIACORE), N=2.

In test [1] the target is cynomolgus monkey (cyno) TIGIT protein (cynomolgus monkey, UniProt A0A7N9I9V4 89-209). The experiment in a line: SPR, monovalent affinity.
Test [2] has as its target T10, human TIGIT protein (human, UniProt Q495A1 22-141, limits assumed).
T10 construct: Recombinant protein (Genentech) used in ELISA screening and as SPR analyte; also called TIGIT antigen
T10 sequence: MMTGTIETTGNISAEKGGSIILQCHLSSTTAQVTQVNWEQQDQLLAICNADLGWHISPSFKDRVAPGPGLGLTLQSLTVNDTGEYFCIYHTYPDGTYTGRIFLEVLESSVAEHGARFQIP
Kind of test: SPR, monovalent affinity.

The target in test [3] is T10, human TIGIT protein. The experiment in a line: SPR (BIACORE) KD normalized to WT, N=2.
In test [4] the target is T11, cynomolgus TIGIT on CHO cells (cynomolgus monkey, UniProt A0A7N9I9V4 89-312).
T11 construct: whole, on cells; also called CHO-cyTIGIT; cyTIGIT
Kind of test: FACS blocking assay: labelled PVR-Fc (blocked ligand; text: cyPVR, scheme of FIG. 4A prints hPVR.Fc) on CHO cells expressing cyno TIGIT. The method, then: These studies were further validated in CHO-TIGIT PVR blocking experiments in which TIGIT-expressing CHO cells were incubated with labeled PVR-Fc fusion protein in the presence of anti-TIGIT antibody or an human IgG1 control (FIG. 4A).

T11 sequence (A0A7N9I9V4 entry or part of it): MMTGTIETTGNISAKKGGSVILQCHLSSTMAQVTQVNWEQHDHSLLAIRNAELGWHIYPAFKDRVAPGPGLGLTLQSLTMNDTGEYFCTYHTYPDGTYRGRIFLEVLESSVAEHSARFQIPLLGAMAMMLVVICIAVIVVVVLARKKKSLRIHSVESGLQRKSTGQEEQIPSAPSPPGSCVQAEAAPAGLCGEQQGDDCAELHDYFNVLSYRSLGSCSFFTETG
Sequence of cynomolgus monkey (cyno) TIGIT protein (A0A7N9I9V4 entry or part of it): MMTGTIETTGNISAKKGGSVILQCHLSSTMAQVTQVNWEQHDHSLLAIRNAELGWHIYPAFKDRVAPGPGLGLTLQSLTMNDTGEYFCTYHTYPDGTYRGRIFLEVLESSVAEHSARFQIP

B1: 10A7 (antibody, V domains shown)
VH: EVQLVESGGGLTQPGKSLKLSCEASGFTFSSFTMHWVRQSPGKGLEWVAFIRSGSGIVFYADAVRGRFTISRDNAKNLLFLQMNDLKSEDTAMYYCARRPLGHNTFDSWGQGTLVTVSS
VL: DIVMTQSPSSLAVSPGEKVTMTCKSSQSLYYSGVKENLLAWYQQKPGQSPKLLIYYASIRFTGVPDRFTGSGSGTDYTLTITSVQAEDMGQYFCQQGINNPLTFGDGTKLEIKR
The Kd is the equilibrium constant for the complex coming apart. Take B1: the “Binding affinity drop vs. WT” value was 1.2 fold in the test with hTIGIT mutant Y113A, 0.7 fold with hTIGIT mutant Q53A and greater than 11 fold with hTIGIT mutant L73A. Besides, the Kd in the test with hTIGIT mutant N70A is 24.3 nM; with hTIGIT mutant H76A, greater than 500 nM; with hTIGIT mutant I68A, 17.1 nM; with hTIGIT mutant H111A, 33.3 nM; in the test with hTIGIT mutant Q56A, 29.5 nM; in the test with hTIGIT mutant L65A, 10.6 nM.

B2: 7.4A3.C96S.Q1E (antibody, V domains shown)
VH: EVQLVQSGSDLKKPGASVRVSCKASGYTFTSYPMNWVRQAPGHGLEWMGWINTNTGNPTYVQGFTGRFVFSLDTSVNTAYLQISSLKAEDTAVYFCARTGGHTYDSYAFDVWGQGTMVTVSS
VL: DIQLTQSPTFLSASVGDRVTITCRASQVISSSLAWYQQNPGKAPKLLIYAASTLQSGVPSRFSGSGSGTEFTLTISSLQPEDFVTYYCQHLHGYPSNFGQGTKVEIK
notes: also called 7.4A3.Q1E.C96S
Take B2: the Kd is 2.01 nM in test [1]; 2.97 nM with human TIGIT protein [2]; 10.7 nM with hTIGIT mutant N70A; 4.2 nM with hTIGIT mutant H76A; 4.9 nM with hTIGIT mutant I68A; 151 nM with hTIGIT mutant H111A. In addition, the Kd with hTIGIT mutant Q56A is 23.7 nM; in the test with hTIGIT mutant L65A, 3.9 nM. Moreover, the “Binding affinity drop vs. WT” value with human TIGIT protein [3] was 1 fold. The “IC50 (read off the curve)” value in test [4] is roughly 0.3 nM.

B3: 4.1D3 (antibody, V domains shown)
VH: QVQLQQSGPGLVKPSQTLSLTCAISGDSVSSNSAAWNWIRQSPSRGLEWLGKTYYRFKWYSDYAVSVKGRITINPDTSKNQFSLQLNSVTPEDTAVFYCTRESTTYDLLAGPFDYWGQGTLVTVSS
VL: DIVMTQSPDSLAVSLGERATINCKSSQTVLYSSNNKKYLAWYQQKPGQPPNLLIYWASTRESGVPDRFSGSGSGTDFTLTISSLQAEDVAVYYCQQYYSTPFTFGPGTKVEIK
notes: OMT rat-derived human antibody; also called 4.1D3.Q1
With B3, the “Binding affinity drop vs. WT” value with hTIGIT mutant Y113A stood at 5.6 fold; with hTIGIT mutant Q53A it was 1.6 fold; with hTIGIT mutant L73A, 2.6 fold; with human TIGIT protein [3], 1 fold. The “IC50 (read off the curve)” value in test [4] was roughly 0.6 nM. The Kd is 1.7 nM in the test with hTIGIT mutant N70A; 0.7 nM in the test with hTIGIT mutant H76A; 10.5 nM in the test with hTIGIT mutant I68A; 1.9 nM with hTIGIT mutant H111A; 2.7 nM with hTIGIT mutant Q56A; 8.8 nM with hTIGIT mutant L65A.

B4: 4.1D3.Q1E (antibody, V domains shown)
VH: EVQLQQSGPGLVKPSQTLSLTCAISGDSVSSNSAAWNWIRQSPSRGLEWLGKTYYRFKWYSDYAVSVKGRITINPDTSKNQFSLQLNSVTPEDTAVFYCTRESTTYDLLAGPFDYWGQGTLVTVSS
VL: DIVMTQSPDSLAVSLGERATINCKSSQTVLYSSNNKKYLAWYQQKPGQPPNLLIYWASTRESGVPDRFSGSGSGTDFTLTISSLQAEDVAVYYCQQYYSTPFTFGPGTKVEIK
For the molecule B4, the results for the Kd (in [1]; with human TIGIT protein [2]) were 3.2 nM and 0.56 nM, respectively.
